In US20090305419:

Columns and labels:
Experiment in all cases: cell_activity
[1] = test system: mROSA-targeted ZFN pair, Wt/Wt linkers (artificial (zinc finger-FokI)); settings: Neuro2A; mock 0.4; repeats 23.2 and 18.7
[2] = test system: mROSA-targeted ZFN pair, Wt/L7a linkers (artificial (zinc finger-FokI)); settings: Neuro2A; mock 0.4
[3] = test system: CCR5 ZFN SBS#8266, L6a linker (artificial (zinc finger-FokI)); settings: average of 2; ZFN pair
[4] = test system: CCR5 ZFN SBS#8266, L7a linker (artificial (zinc finger-FokI)); settings: ZFN pair
[5] = test system: rat IgM-targeted ZFN pair, ZC linker (artificial (zinc finger-FokI)); settings: rat C6 cells, CEL-I
[6] = test system: rat IgM-targeted ZFN pair, with L7a linker (artificial (zinc finger-FokI)); settings: rat C6 cells, CEL-I
[7] = test system: CCR5 ZFN SBS#8266, wild-type ZC linker (artificial (zinc finger-FokI)); settings: average of 2; ZFN pair
CCR5 ZFN SBS#8266, wild-type ZC linker (artificial (zinc finger-FokI)), sequence (chain, as listed by the source): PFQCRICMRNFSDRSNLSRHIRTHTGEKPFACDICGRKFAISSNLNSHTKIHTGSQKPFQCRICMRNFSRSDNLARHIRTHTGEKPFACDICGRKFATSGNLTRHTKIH

CCR5 ZFN SBS#8266, L6a linker (artificial (zinc finger-FokI)), sequence (chain, as listed by the source): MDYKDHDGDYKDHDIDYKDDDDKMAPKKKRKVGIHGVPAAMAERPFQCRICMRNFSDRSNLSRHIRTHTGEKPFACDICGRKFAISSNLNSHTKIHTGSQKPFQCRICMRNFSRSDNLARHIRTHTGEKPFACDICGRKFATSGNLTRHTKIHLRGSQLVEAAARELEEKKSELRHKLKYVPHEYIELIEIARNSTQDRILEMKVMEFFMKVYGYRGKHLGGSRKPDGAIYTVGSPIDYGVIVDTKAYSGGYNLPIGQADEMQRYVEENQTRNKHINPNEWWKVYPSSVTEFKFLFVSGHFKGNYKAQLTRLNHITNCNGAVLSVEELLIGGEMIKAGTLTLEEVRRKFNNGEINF

mROSA target, 6 bp gap
activity [1]: 22.6 % NHEJ
activity [2]: 7.5 % NHEJ

CCR5 ZFN target, 7 bp gap
activity [3]: 5.1 % NHEJ
activity ([4]; average of 2): 39.6 % NHEJ

CCR5 ZFN target, 8 bp gap
activity ([4]; average of 2 as printed): 6.1 % NHEJ

rat IgM target, 6 bp gap
activity [5]: 1.93 % NHEJ
activity [6]: 2.43 % NHEJ

CCR5 ZFN target, 4 bp gap
activity [7]: 1.2 % NHEJ

CCR5 ZFN target, 5 bp gap
activity [3]: 39.3 % NHEJ
activity [7]: 35 % NHEJ

CCR5 ZFN target, 6 bp gap
activity [3]: 25.4 % NHEJ
activity [7]: 11.1 % NHEJ
activity ([4]; average of 2): 31.8 % NHEJ
